From patent US7045617 (MOUNT SINAI SCHOOL OF MEDICINE, dated 2006)
Side-chain parts run from the residue outwards. [ ]: non-standard residue; d: D form. Phe(4-NH2) = Nc1ccc(C[C@H](N)C(=O)O)cc1; Dap = NC[C@H](N)C(=O)O

Key:
[1] = target: T1, recombinant mouse protein kinase A (catalytic subunit) (mouse, UniProt P05132 2-351); assay: PKA radiometric kinase assay with biotinylated kemptide, Dixon plot, versus ATP
Protocol: (§1) Reagents from Calbiochem's Protein Kinase A kit were used to perform the inhibition assays and recombinant mouse PKA (catalytic subunit) was also purchased from Calbiochem (enzyme concentration was established by Bradford analysis). […] These were further diluted into water to produce a range of inhibitor solutions between 51 μM and 507 nM. An 11.25 μL aliquot from each of these solutions was pre-incubated with 7.5 μL of a 1.75 nM PKA enzyme solution (750 ug/uL bovine serum albumin) for 10 minutes at 30° C. after which 12.5 μL of pre-incubation mix was added to 12.5 μL of reaction mix (30 μM cold ATP, 50 μM biotinylated kemptide substrate, 0.04 uCi/μL γP-32 ATP, 80 mM Tris-HCl, 10 mM MgCl_2, pH 7.5) to initiate the enzymatic reaction. […] The columns were placed in scintillation vials and radioactivity was measured using a scintillation counter.

[2] = target: T1, recombinant mouse protein kinase A …; assay: PKA radiometric kinase assay, Dixon plot, adjusted to zero substrate
Protocol: as §1

[3] = target: protein tyrosine kinase Csk (UniProt P41240 1-450, limits assumed); assay: Csk kinase inhibition assay
Sequence of protein tyrosine kinase Csk (P41240 whole entry): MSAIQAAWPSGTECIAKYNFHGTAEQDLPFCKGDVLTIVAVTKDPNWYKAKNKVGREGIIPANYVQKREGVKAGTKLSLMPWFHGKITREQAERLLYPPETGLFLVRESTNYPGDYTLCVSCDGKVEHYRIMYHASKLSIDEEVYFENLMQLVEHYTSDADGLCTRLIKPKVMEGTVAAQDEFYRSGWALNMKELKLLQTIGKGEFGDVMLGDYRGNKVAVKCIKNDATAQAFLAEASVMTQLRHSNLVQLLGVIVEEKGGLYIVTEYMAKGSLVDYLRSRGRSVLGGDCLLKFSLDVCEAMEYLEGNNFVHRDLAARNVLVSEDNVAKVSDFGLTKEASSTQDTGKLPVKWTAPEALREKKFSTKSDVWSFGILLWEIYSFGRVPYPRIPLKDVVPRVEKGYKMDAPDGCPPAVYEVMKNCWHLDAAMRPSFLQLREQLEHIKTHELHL

Row | Binder | Ki [1] | Ki [2] | Ki [3]
1 | Ac-LRRA[Dap]([Ac-ATPγS])LG-OH [kemptide-ATPγS conjugate] | 9.56 µM | 4.6 µM | 
2 | Ac-KKKLPATGD[Phe(4-NH2)]([Ac-ATPγS])MNMSPVGD-OH (also called bisubstrate analog 2) [Compound 2 (peptide-ATP bisubstrate analog; IRS727 peptide linked to ATPγS through an acetyl linker)] |  |  | ~40 µM
